Reference: publication PMC6876990 (2019)

Target: T1, Smac peptide AVPIAQKSEKY (Homo sapiens)
T1 chain: AVPIAQKSEKY
Assay: ITC

B1: WT-XIAP BIR3 241-356 (protein)
chain: SDAVSSDRNFPNSTNLPRNPSMADYEARIFTFGTWIYSVNKEQLARAGFYALGEGDKVKCFHCGGGLTDWKPSEDPWEQHAKWYPGCKYLLEQKGQEYINNIHLTHSLEECLVRTT
Which Kd does the source give for B1 here?
Its Kd is 428 nM.
